Data on one substance can be found in doi:10.1101/197673.

The assay deals with TM-JM peptide of EGFR labelled at the N-terminus with Cy3 or Cy5. Briefly: FRET or BRET.

The substance “TM-JM peptide of EGFR labelled at the N-terminus with Cy3 or Cy5” returned a percent of peptide dimers with a high FRET efficiency state in the trajectories of 95%.
